From patent US20190100594A1
Where two headings read alike, the source gives them in different places.

Columns and labels:
[1] = biological target: GITR expressed on CHO cells (Homo sapiens (Human)) (UniProt Q9Y5U5); experiment: flow cytometry on GITR-expressing CHO cells, MFI-FL4
[2] = biological target: GITR expressed on CHO cells (Homo sapiens (Human)) (UniProt Q9Y5U5); experiment: as above; remark: listed apart in the source

Sequence of GITR expressed on CHO cells (Homo sapiens (Human)) (Q9Y5U5 26-241 limits assumed): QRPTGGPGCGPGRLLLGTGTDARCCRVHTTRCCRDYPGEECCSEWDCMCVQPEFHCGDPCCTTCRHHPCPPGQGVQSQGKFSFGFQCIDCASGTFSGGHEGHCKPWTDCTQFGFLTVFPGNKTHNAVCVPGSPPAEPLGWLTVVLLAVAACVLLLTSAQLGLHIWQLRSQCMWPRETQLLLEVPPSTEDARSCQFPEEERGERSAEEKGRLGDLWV

- EC50 (read off the curve) [1]: 3 nM
- EC50 (read off the curve) [2]: 1 nM
Substance: TRX-518 (antibody)
